{"source": "paper PMC3162612", "about": "“RssAB Signaling Coordinates Early Development of Surface Multicellularity in Serratia marcescens” (PLoS ONE, 2011)", "binders": {"B1": {"name": "poly histidine-tagged cytoplasmic region of RssA (domain or fragment)", "chain": "LRPLRQIARTISDRQPGNLSPINVSEQYQEIRPVVMEVNKLMARIDAANQREKRFMADAAHELRTPIAAVLAQLHLLTQVTEQQERREIIGDMQQGLDRAASLSRQLINLAKLEAEDFPLKIEAVDIYAEIGKCIAQHVPYALEKDVELSLDGSEDVVVSTDRRALIAIFTNLLDNALKYAPPGSRIEANIRSLAPLGCYITLRDNGPGVSEEHRSRLFERFYRVPGTQQTGSGLGLAIARNLADKIGAQLRVTEGLDDRGIGFIIDLPESYRPQTESEPRP", "notes": "RssA, inner membrane sensor kinase of the RssAB two-component system, Serratia marcescens CH-1; also called His-cRssA; cRssA; source: E. coli BL21(DE3)pLysS, recombinant protein for purification"}}, "molecular_target": "T1, GST-tagged non-phosphorylatable variant RssB D51E (Serratia marcescens, UniProt Q8GP20 1-219, D51E)", "T1 construct": "RssB, response regulator of the RssAB two-component system, Serratia marcescens CH-1, with D51E; plasmid pGST-RssB^D51E (pGEX-2T-rssB D51E); used to mimic unphosphorylated RssB; also called GST-RssB^D51E; source: E. coli BL21(DE3)pLysS, purified", "T1 sequence": "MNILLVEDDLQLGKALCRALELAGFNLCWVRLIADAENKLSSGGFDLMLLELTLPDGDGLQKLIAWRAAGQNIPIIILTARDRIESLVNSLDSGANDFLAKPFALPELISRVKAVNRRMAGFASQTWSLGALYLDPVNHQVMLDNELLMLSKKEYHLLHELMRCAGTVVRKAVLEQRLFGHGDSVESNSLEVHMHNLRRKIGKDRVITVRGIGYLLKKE", "assay": "pull-down; GST, GST-RssB or GST-RssB D51E pretreated with acetyl-phosphate, incubated with His-cRssA and glutathione sepharose-4B in interaction buffer (20 mM Tris-HCl pH 7.5, 10 mM MgCl2, 100 mM KCl), 4°C 1 hr; washed; SDS-PAGE, Coomassie stain and anti-hexa-histidine blot", "conditions": "both partners purified", "data": [{"binder": "B1", "values": [{"measurement": "fold His-cRssA pulled down relative to GST-RssB", "result": "~2", "unit": "fold"}]}]}
